This passage reports Kd results from publication PMC9739371, “Deciphering the Binding of the Nuclear Localization Sequence of Myc Protein to the Nuclear Carrier Importin α3” (International Journal of Molecular Sciences, 2022).

Broadly, the Kd is the concentration at which binding is half-saturated. Higher therefore signals a looser complex.

The target of experiment [1] is T1, human importin α3 isoform (residues 1-521) (human, UniProt O00629 1-521).
T1 construct: importin α3 (Impα3), human, residues 1-521, with the N-terminal IBB domain; also called Impα3; source: purified as previously described [18,19,20]
T1 sequence (looked up): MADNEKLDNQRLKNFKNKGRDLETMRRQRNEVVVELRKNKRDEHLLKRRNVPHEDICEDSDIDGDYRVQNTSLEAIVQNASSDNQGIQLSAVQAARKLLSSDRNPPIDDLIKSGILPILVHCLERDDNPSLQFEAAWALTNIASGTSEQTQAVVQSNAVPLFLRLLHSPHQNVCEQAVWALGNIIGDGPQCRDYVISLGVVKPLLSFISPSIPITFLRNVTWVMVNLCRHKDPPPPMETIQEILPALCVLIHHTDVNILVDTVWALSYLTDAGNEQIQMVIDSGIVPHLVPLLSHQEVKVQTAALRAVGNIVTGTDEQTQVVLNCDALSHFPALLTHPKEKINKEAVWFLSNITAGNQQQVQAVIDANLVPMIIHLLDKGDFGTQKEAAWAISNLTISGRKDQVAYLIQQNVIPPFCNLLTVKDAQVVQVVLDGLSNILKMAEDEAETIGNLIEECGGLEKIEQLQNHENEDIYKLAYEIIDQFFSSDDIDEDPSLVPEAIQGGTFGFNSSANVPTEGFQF
The experiment can be described thus: BLI; BLItz system; His-tagged Impα3 or ΔImpα3 immobilised on His-tag biosensors at 0.5 µM; NLS-Myc 1 to 7 µM in solution; 10x kinetics buffer of the manufacturer; 25 °C; kon and koff from a pseudo-first-order plot. The settings on record: both partners purified. For orientation: BLI is a label-free optical method that tracks binding on a fibre tip over time.

Experiment [2] addresses T2, IBB-depleted species of importin α3 (residues 64-521 of the intact protein) (human, UniProt O00629 64-521).
T2 construct: also called ΔImpα3; truncated species of Impα3; source: purified as previously described [18,19,20]
T2 sequence (looked up): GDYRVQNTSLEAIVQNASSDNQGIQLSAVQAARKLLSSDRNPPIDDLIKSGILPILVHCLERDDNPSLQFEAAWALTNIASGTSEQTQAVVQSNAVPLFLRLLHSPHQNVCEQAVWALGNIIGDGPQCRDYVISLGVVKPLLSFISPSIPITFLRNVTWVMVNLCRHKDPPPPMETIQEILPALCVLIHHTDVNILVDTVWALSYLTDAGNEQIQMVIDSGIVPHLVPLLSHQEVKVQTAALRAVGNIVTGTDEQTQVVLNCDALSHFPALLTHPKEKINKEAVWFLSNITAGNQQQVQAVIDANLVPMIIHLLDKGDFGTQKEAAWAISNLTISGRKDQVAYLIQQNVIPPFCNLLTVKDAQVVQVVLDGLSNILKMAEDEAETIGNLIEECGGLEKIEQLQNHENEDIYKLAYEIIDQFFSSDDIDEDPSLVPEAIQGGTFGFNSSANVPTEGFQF
Described as above. The settings on record: both partners purified.

Several values for one entry are separate records, joined by “and”; a condition that tells them apart may be missing. Identical values can stand only once.

B1: NLS-Myc peptide (Ala310-Asn339 of human c-Myc) (peptide)
peptide: AAPPSTRKDYPAAKRVKLDSVRVLRQISNN
notes: human c-Myc, residues Ala310-Asn339: canonical NLS Pro320-Asp328 with the flanking residues of native Myc; also called the peptide; source: synthetic peptide, produced by NZYtech (Lisbon, Portugal), purity larger than 95%
Consider B1, for which the dissociation constant (Kd) in experiment [1] is 500 nM and 600 nM; in experiment [2], 60 ± 30 nM.
